Legend:
Type in all cases: cell-based
M1 cells [1] = assay: Protein tyrosine phosphorylation after anti-gp130 immunoprecipitation; conditions: M1 cells treated with CLC or LIF supernatant; band of apparent molecular mass 32 kDa
Experimental: Because of the wide range of known factors capable of stimulating tyrosine kinase activity, identifying whether CLC or a molecule induced by CLC is capable of activating tyrosine kinase signal transduction pathways is of interest. Therefore, the following protocol is designed to identify such molecules capable of activating the tyrosine kinase signal transduction pathways.
Seed NIH-3T3 cells in 15 cm^2 cell culture plates in DMEM supplemented with Pen/Strep, 10% FBS, 25 mM Hepes. […] At the point the experiment begins, the cells should be 80-90% confluent. Collect M1 cells in 50 ml tube and centrifuge 1000 rpm for 5 min. Resuspend the cell pellet in “quiescing medium” which is RPMI supplemented with Pen/Strep, glutamine. (It is important to note that quiescing medium contains neither serum nor growth factors.) Centrifuge again at 1000 rpm for 5 min to wash the cells. Again, resuspend the cells in quiescing medium. Incubate the M1 cells in quiescing medium for 16 hours at 37° C.
Pre-warm quiescing medium (for Ml cells) and a metal tube rack to 37° C. Pre-cool quiescing media (for NIH-3T3 cells) and sterile Eppendorf tubes containing 0.5 ml of sample. […] Resuspend M1 cells to 5.0×10^7 cells per 0.5 ml quiescing media. Place all tubes on per warmed metal rack and leave at 37° C. until ready to begin. Add samples to these pre-aliquoted tubes. […]

[2] = tested on: SRE element in TF-1 cells; assay: SRE/SEAP reporter assay in TF-1 cells; conditions: supernatants from 293T cells transfected with CLC expression vector, SEAP reporter
Excerpt: (§1) Therefore, activation of the Jaks-STATs pathway, reflected by the binding of the GAS or the ISRE element, can be used to indicate proteins involved in the proliferation and differentiation of cells. For example, growth factors and cytokines are known to activate the Jaks-STATs pathway (see Table below). Thus, by using GAS elements linked to reporter molecules, activators of the Jaks-STATs pathway can be identified. Serum response elements (SREs) play a similar role in signal transduction although the DNA sequence which mediates a serum response is unique from the GAS or ISRE sequences.
(§2) Other constructs can be made using the above description and replacing GAS with a different promoter sequence. For example, construction of reporter molecules containing NF-kB and EGR promoter sequences are described in Examples 6 and 8. However, many other promoters can be substituted using the protocols described in these Examples. For instance, SRE, IL-2, NFAT, or Osteocalcin promoters can be substituted, alone or in combination (e.g., GAS/NF-κB/EGR, GAS/NF-κB, Il-2/NFAT, or NF-κB/GAS). Similarly, other cell lines can be used to test reporter construct activity, such as HeLa (epithelial), HUVEC (endothelial), Reh (B-cell), Saos-2 (osteoblast), HUVAC (aortic) or cardiomyocyte.
(§3) Separate the Optiplates to avoid uneven heating.
(§4) An increase in chemiluminescence indicates reporter activity.

[3] = tested on: primary neuronal cultures (sympathetic neuron counts); assay: Neuron counts in primary neuronal cultures
Experimental: (§5) Primary cardiomyocytes, primary neuronal cultures, or other cells are plated at a low density and cultured using standard culturing techniques. […] Cultures are evaluated at a point between 48 and 72 hours post-treatment by counting the number of cells in four non-overlapping fields in three independent cultures and averaging the results.

Primary cardiomyocytes = assay: Cardiac myocyte hypertrophy, cell counts in culture
Experimental: as §5

GAS element in M1 cells [4] = assay: GAS/SEAP reporter assay in M1 cells; conditions: GAS/SEAP construct in M1 cells; supernatants from 293T cells transfected with CLC expression construct
Excerpt: (§6) The sequence of the 5' primer is: [NT] ID NO:16). […] The sequence of the 3' primer is: [NT] ID NO:17). […] Separate the Optiplates to avoid uneven heating. […] An increase in chemiluminescence indicates reporter activity.

GAS element in M1 cells [5] = assay: SEAP reporter assay, SRE experiment repeated in M1 cells; conditions: M1 cells replacing TF-1 cells, supernatants from 293T cells transfected with CLC expression vector
Excerpt: as §1, §2, §3, §4

M1 cells [6] = assay: M1 cell proliferation by BrdU incorporation; conditions: dose of 100 μL, 72 hours
Experimental: The effect of CLC on cellular proliferation can be assayed in M1 cells by BrdU incorporation. 1×10^4 cells/100 μL are dispensed into 96-well cell culture plates and labeled with 10 μL BrdU. CLC is added to the cells at several doses (0, 5, 25, and 100 μL) and LIF is added to the cells as a positive control at a dose of 100 μL. The cells are allowed to grow for 72 hours at 37° C. The amount of BrdU incorporation is determined by the Cell Proliferation ELISA BrdU colorimetric kit (Boehringer Mannheim).

[7] = tested on: GAS element in TF-1 cells; assay: GAS/SEAP reporter assay in TF-1 cells; conditions: GAS/SEAP construct in TF-1 cells; supernatants from 293T cells transfected with CLC expression construct
Excerpt: as §6

[8] = counted 48 to 72 hours post-treatment, four fields in three independent cultures, averaged

B1: CLC: human polypeptide named cardiotrophin-like cytokine, IL-6 cytokine family member; tested as supernatant of transfected 293T cells (protein)
chain: MDLRAGDSWGMLACLCTVLWHLPAVPALNRTGDPGPGPSIQKTYDLTRYLEHQLRSLAGTYLNYLGPPFNEPDFNPPRLGAETLPRATVDLEVWRSLNDKLRLTQNYEAYSHLLCYLRGLNRQAATAELRRSLAHFCTSLQGLLGSIAGVMAALGYPLPQPLPGTEPTWTPGPAHSDFLQKMDDFWLLKELQTWLWRSAKDFNRLKKKMQPPAAAVTLHLGAHGF
modifications: homo sapiens; signal (-27)..(-1)
notes: human polypeptide named cardiotrophin-like cytokine, IL-6 cytokine family member; tested as supernatant of transfected 293T cells
**Q.** For B1, which “band of tyrosine-phosphorylated protein in cell extracts” value (M1 cells [1]) is on record?
**A.** produced a band of phosphorylated protein

**Q.** And the “activation of the SRE element over the negative control level” value [2]?
**A.** 2.6 fold

**Q.** And the “No. Neurons” value [3, 8]?
**A.** 86

**Q.** What about the “change of sympathetic neuron counts” value ([3]; samples treated with CLC-transfected supernatants) of the same molecule?
**A.** clear increase

**Q.** What about the “No. Active Myocytes” value (Primary cardiomyocytes; [8]) of the same molecule?
**A.** 50

**Q.** And the “reduction of cardiomyocyte hypertrophic activity of mock-transfected 293T supernatant” value (Primary cardiomyocytes; supernatants from CLC-transfected 293T cells, 48 to 72 hours post-treatment)?
**A.** 2 fold

**Q.** What about the “induction of the GAS element” value (GAS element in M1 cells [4]) of the same molecule?
**A.** 4.5 fold

**Q.** And the “induction of the GAS element (SRE experiment repeated)” value (GAS element in M1 cells [5])?
**A.** 3.2 fold

**Q.** And the “inhibition of M1 cell proliferation with respect to the negative control” value (M1 cells [6])?
**A.** 3.1 fold

**Q.** And the “activation of the GAS element” value [7]?
**A.** 4.6 fold

Source: US20030087395A1, “Cardiotrophin-like cytokine” (Human Genome Sciences, Inc., priority 1997, published 2003)
